These results are taken from paper PMC5675868.

In data set [1] the target is T1, Aux2LS20-His6 (p57) (Bacillus subtilis plasmid pLS20cat) (UniProt E9RJ22).
T1 sequence: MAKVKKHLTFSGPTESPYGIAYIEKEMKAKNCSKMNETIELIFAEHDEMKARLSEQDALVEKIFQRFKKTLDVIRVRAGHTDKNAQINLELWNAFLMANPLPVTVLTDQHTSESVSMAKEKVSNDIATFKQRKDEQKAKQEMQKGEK
Put plainly: EMSA. The settings on record: EMSA: 20 mM Tris-HCl pH 8, 1 mM EDTA, 5 mM MgCl2, 0.5 mM DTT, 100 mM KCl, 10% glycerol, 0.05 mg/ml BSA; 20 min 30°C then 10 min on ice; 2% agarose, 0.5x TBE ….

In data set [2] the test system is T2, Aux1LS20-His6 (p56) (Bacillus subtilis plasmid pLS20cat), ORF:1a040432.
T2 sequence: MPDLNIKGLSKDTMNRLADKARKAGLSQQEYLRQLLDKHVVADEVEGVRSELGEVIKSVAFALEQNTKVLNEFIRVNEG
Put plainly: EMSA. The settings on record: EMSA: 20 mM Tris-HCl pH 8, 1 mM EDTA, 5 mM MgCl2, 0.5 mM DTT, 100 mM KCl, 10% glycerol, 0.05 mg/ml BSA; 20 min 30°C then 10 min on ice; 2% agarose, 0.5x TBE ….

Data set [3] concerns the target Aux2_(LS20) with a C-terminal His(6) tag (Bacillus subtilis (plasmid pLS20cat)). Put plainly: AUC; sedimentation equilibrium of the purified protein alone at 12 uM, best fit to a single species model; conditions as in Ramachandran et al., 2017.
Data set [4] has the same target. In words: AUC + other: dynamic light scattering; sedimentation velocity of the purified protein alone at 12 uM; diffusion coefficient from DLS combined with the S-value in the Svedberg equation; conditions as in Ramachandran et al., 2017.
Data set [5] addresses Aux1_(LS20) with a C-terminal His(6) tag (Bacillus subtilis (plasmid pLS20cat)). Put plainly: AUC; sedimentation equilibrium of the purified protein alone at 12 uM, best fit to a single species model; conditions as in Ramachandran et al., 2017.
Data set [6] shares this target. In words: AUC + other: dynamic light scattering; sedimentation velocity of the purified protein alone at 12 uM; diffusion coefficient from DLS combined with the S-value in the Svedberg equation; conditions as in Ramachandran et al., 2017.

Consider “GCAAATGGTGCCAGTTTCCCCTTATGCTCTTTCCTTTTCCACCCCCTCCTTCCTTCGGAATCGGGGGCCGGCTTTTTGCTGCCGCAAAAAGCCTTGGAAAAAGAAACACTTATTTGAACAGATCGTTGCAAAGTAATGTGCAGAAATCGATGAAAAGGAGCGTTAACAAATGCCGGATCTCAACATCAAAGGTCTTTCAA (double strand) [F31]”, for which the binding entry in data set [1] is reported as “no binding”.

Turning to “TAAATGTTTTTTTTATGTGCATTCAGCAATAAATCTGGTACCACGAAAAAACAAACCGCACTGCGGTTTCACCATGCAAATGGTGCCAGTTTCCCCTTATGCTCTTTCCTTTTCCACCCCCTCCTTCCTTCGGAATCGGGGGCCGGCTTTTTGCTGCCGCAAAAAGCCTTGGAAAAAGAAACACTTATTTGAACAGATCG (double strand) [F28]”, the results for the binding entry in data set [1] and in data set [2] were “binds more weakly” and “binds”, respectively.

With “CGGCATTTGTTAACGCTCCTTTTCATCGATTTCTGCACATTACTTTGCAACGATCTGTTCAAATAAGTGTTTCTTTTTCCAAGGCTTTTTGCGGCAGCAAAAAGCCGGCCCCCGATTCCGAAGGAAGGAGGGGGTGGAAAAGGAAAGAGCATAAGGGGAAACTGGCACCATTTGCATGGTGAAACCGCAGTGCGGTTTGT (double strand) [F30]”, the binding entry in data set [1] was “no binding”.

Turning to “AAATCACCTAAATAATGGTTGAACATAAATGTTTTTTTTATGTGCATTCAGCAATAAATCTGGTACCACGAAAAAACAAACCGCACTGCGGTTTCACCATGCAAATGGTGCCAGTTTCCCCTTATGCTCTTTCCTTTTCCACCCCCTCCTTCCTTCGGAATCGGGGGCCGGCTTTTTGCTGCCGCAAAAAGCCTTGGAAA (double strand) [F27]”, the binding result was “binds more weakly” in data set [1] and “binds” in data set [2].

With “ATGGTGAAACCGCAGTGCGGTTTGTTTTTTCGTGGTACCAGATTTATTGCTGAATGCACATAAAAAAAACATTTATGTTCAACCATTATTTAGGTGATTTAGAACTAAATGCACATAAATCTTTATTTTATGCACACGAAAAATAACTGTTTTCCATACAGAAATTTAGTCTTCGATGACGAGATTGCTCTTTCTTTTCT (double strand) [F23]”, the binding entry in data set [1] and in data set [2] was “binds” in each case.

For “Aux2_(LS20) with a C-terminal His(6) tag (natural protein)”, the stoichiometry N in data set [3] and in data set [4] was 6 throughout.

For “TGAGAAAGTCCTGCCTTCCTCGCTTTATCCGCAAGCCTATTCATTGTATCTTTTGAAAGACCTTTGATGTTGAGATCCGGCATTTGTTAACGCTCCTTTTCATCGATTTCTGCACATTACTTTGCAACGATCTGTTCAAATAAGTGTTTCTTTTTCCAAGGCTTTTTGCGGCAGCAAAAAGCCGGCCCCCGATTCCGAAGG (double strand) [F33]”, the binding result in data set [1] is recorded as “no binding”.

Turning to “TAAAGATTTATGTGCATTTAGTTCTAAATCACCTAAATAATGGTTGAACATAAATGTTTTTTTTATGTGCATTCAGCAATAAATCTGGTACCACGAAAAAACAAACCGCACTGCGGTTTCACCATGCAAATGGTGCCAGTTTCCCCTTATGCTCTTTCCTTTTCCACCCCCTCCTTCCTTCGGAATCGGGGGCCGGCTTT (double strand) [F26]”, the binding entry in data set [1] is reported as “binds more weakly”; in data set [2] it was “binds”.

Consider “GCTCTTTCCTTTTCCACCCCCTCCTTCCTTCGGAATCGGGGGCCGGCTTTTTGCTGCCGCAAAAAGCCTTGGAAAAAGAAACACTTATTTGAACAGATCGTTGCAAAGTAATGTGCAGAAATCGATGAAAAGGAGCGTTAACAAATGCCGGATCTCAACATCAAAGGTCTTTCAAAAGATACAATGAATAGGCTTGCGGA (double strand) [F32]”, for which the binding entry in data set [1] is on record as “no binding”.

Regarding “Aux1_(LS20) with a C-terminal His(6) tag (natural protein)”, the stoichiometry N in data set [5] and in data set [6] was 4 in each case.

Take “CAGTTATTTTTCGTGTGCATAAAATAAAGATTTATGTGCATTTAGTTCTAAATCACCTAAATAATGGTTGAACATAAATGTTTTTTTTATGTGCATTCAGCAATAAATCTGGTACCACGAAAAAACAAACCGCACTGCGGTTTCACCATGCAAATGGTGCCAGTTTCCCCTTATGCTCTTTCCTTTTCCACCCCCTCCTTC (double strand) [F25]”: the binding result in data set [1] and in data set [2] was “binds” in each case.

As to “TTTTTCGTGGTACCAGATTTATTGCTGAATGCACATAAAAAAAACATTTATGTTCAACCATTATTTAGGTGATTTAGAACTAAATGCACATAAATCTTTATTTTATGCACACGAAAAATAACTGTTTTCCATACAGAAATTTAGTCTTCGATGACGAGATTGCTCTTTCTTTTCTTCAATAATTCATTCCGTTTTTCAAG (double strand) [F22]”, the binding result in data set [1] and in data set [2] was “binds” throughout.

With “CGAAGACTAAATTTCTGTATGGAAAACAGTTATTTTTCGTGTGCATAAAATAAAGATTTATGTGCATTTAGTTCTAAATCACCTAAATAATGGTTGAACATAAATGTTTTTTTTATGTGCATTCAGCAATAAATCTGGTACCACGAAAAAACAAACCGCACTGCGGTTTCACCATGCAAATGGTGCCAGTTTCCCCTTAT (double strand) [F24]”, the binding result in data set [1] and in data set [2] was “binds” throughout.

On to “ACGAGCAAAGAAATGCTAGGTGAACTTGAAAAACGGAATGAATTATTGAAGAAAAGAAAGAGCAATCTCGTCATCGAAGACTAAATTTCTGTATGGAAAACAGTTATTTTTCGTGTGCATAAAATAAAGATTTATGTGCATTTAGTTCTAAATCACCTAAATAATGGTTGAACATAAATGTTTTTTTTATGTGCATTCAGC (double strand) [F21]”, for which, in data set [1], the binding entry is given as “binds”.

With “CATCGATTTCTGCACATTACTTTGCAACGATCTGTTCAAATAAGTGTTTCTTTTTCCAAGGCTTTTTGCGGCAGCAAAAAGCCGGCCCCCGATTCCGAAGGAAGGAGGGGGTGGAAAAGGAAAGAGCATAAGGGGAAACTGGCACCATTTGCATGGTGAAACCGCAGTGCGGTTTGTTTTTTCGTGGTACCAGATTTATTG (double strand) [F29]”, the binding entry in data set [1] is reported as “no binding”; in data set [2], “binds”.
